Laboratory results taken from patent US20240082356A1, “TREATMENT OF COPD BY STIMULATION OF STEM CELL MOBILIZATION” (Therapeutic Solutions International, Inc., priority 2022, published 2024).

System: neutrophil infiltration in COPD like inflammation
Assay: Neutrophil infiltration in elastase-induced COPD model
Assay type: in vivo
Details: female BALB/c mice injected with elastase (5 micrograms per mouse); G-CSF 10 micrograms per mouse every second day for one week and pterostilbene 40 mg/kg intraperitoneally; assessed on days 0, 7 and 14
Method: Female BALB/c mice, 10 per group, where injected with elastase (5 micrograms per mouse) to induce COPD like inflammation. Mice were given G-CSF (10 micrograms per mouse) every second day for one week and pterostilbene (40 mg/kg) intraperitoneally. Mice were sacrificed on days 0, 7, and 14 and assessed for neutrophil infiltration.

B1: G-CSF: stem cell mobilizer; colony stimulating factor (protein, UniProt P09919 31-207, looked up)
Granulocyte …: TPLGPASSLPQSFLLKCLEQVRKIQGDGAALQEKLVSECATYKLCHPEELVLLGHSLGIPWAPLSSCPSQALQLAGCLSQLHSGLFLYQGLLQALEGISPELGPTLDTLQLDVADFATTIWQQMEELGMAPALQPTQGAMPAFASAFQRRAGGVLVASHLQSFLEVSYRVLRHLAQP
  neutrophil infiltration in COPD Model: reduction of neutrophil infiltration
